Assay results from article PMC7291361 (ACS infectious diseases, 2020).

Target: H4 NB-10 HA full length soluble ectodomain (FLsE) (Influenza A virus A/American black …, UniProt M1UPL4, strain)
Assay: ELISA

B1: K03.12 IgG (antibody, V domains shown)
VH: QVQLVQSGAEVKKPGASVKVSCKTSGYTFTAYYLHWVRQAPGQGFEWMAWINPNTGDTNYAQKFQGRVTLSRDTSITTAYMELTRLRSDDTAVYYCAKDLTLMYVFDSGWARGAHDYYGMDVWGQGTTVAVSG
VL: PSALTQPASVSGSPGQSVTISCTGTNSDVGTFDLVSWYQQYPGKAPKLIIYEGSRRPSGVSDRFSGSKSGNTASLTISGLQAEDEADYYCSSYAGSVVFGGGTKLTVL
B1: no binding (tested: 1 μM IgG).
